Consider 21 sequences from the DeepSol protein solubility set.

The series in a line: soluble on expression in E. coli; label from the status in PepcDB or PDB records.
For “MGSDKIHHHHHHMTQLKTLPIYDPTLFEGAAEVYAQYRTKYPPAVFDKLTEIFNLNGQGRLLDLGTGPGLIAIPLSTKFQEVVAIDPDPEMLKEAQRQAATAGANNITWLEQGAELINPSLGVFKLATIGRAFHWMERQLVLERLYELLADDGAIALLNTGDDPWKSPLPWKQAAIGVVKKWLGEERRTGQRGQGIRKPVDPPHEVVIANSKFARQEVHEVTFEKSWTVSSYLGYLYTTAFSLKIFYGDKAEEFEADIKDALLAVEPSGHFTEELKATIQVVWKH”, the “soluble on expression in E. coli” value is recorded as “not soluble”.
In the case of “MKEKIPFYNEKEFHDMVKKTKKGTFSGWYIINKNNNSVEFSGSFNRQFKLNKPVIPVNTEYVTRKEFNEYKDSNDQRLTKIETELKSQGQRIQVVEDKVDRLTEVVMVQSQQIKTQGEAMNARMDRFESLVLKSLESIGNTLTDFGKRLDVIETRLDKIDPPK”, the “soluble on expression in E. coli” value is “soluble”.
The entry for “MFGGGSSGPVDTTLYTTLNVRPDASQADIKKSYFKLAKEYHPDKNPDHGDKFKEISFAYEVLSSPEKRRLYDARGLEGVQGGGAGGGGGGFPGGLFSHFFGGAGGDDDDDDDDMGGHPFGGLFGGMGGMGRGGPRRRKFQDTVHPLNVTLEELYVGKTSKLKLSKKALCKTCEGSGGKKGEKYKCDACRGRGVKTIVQQIGPGMLQQMQVHCDACKGSGGKVPAGDKCKGCHGEKYENVSKILEVHVLPGMKHNDKITFKGDGDQSDPDGEPGDVVIVIQQKDHDIFKRDGDDLHMTKKLSLNEALCGYNFLIKHLDGHPLVLSSKQGDVIKPGVIRGVLGKGMPNKKYPELKGNLFVEFEVEFPKEHFLDDEKAYAVLKSCFPTSKVVNVTPAAAEVSLMEYDEKKYSRGRGGDAYNEDSDEEQHGGHHGQGVRCQHQ” is “not soluble”; for “AHHHHHHGSNLRNKLKLYVITDRRLKPEVESVREALEGGATAIQMRIKNAPTREMYEIGKTLRQLTREYDALFFVDDRVDVALAVDADGVQLGPEDMPIEVAKEIAPNLIIGASVYSLEEALEAEKKGADYLGAGSVFPTKTKEDARVIGLEGLRKIVESVKIPVVAIGGINKDNAREVLKTGVDGIAVISAVMGAEDVRKATEELRKIVEEVLG” it is “soluble”.
For the sequence “MGEQPIFTTRAHVFQIDPSTKKNWVPASKQAVTVSYFYDVTRNSYRIISVDGAKVIINSTITPNMTFTKTSQKFGQWADSRANTVFGLGFSSELQLTKFAEKFQEVREAAR”, the “soluble on expression in E. coli” value was “soluble”.
As to “MGEQPIFTTRAHVFQIDPNTKKNWMPASKQAVTVSYFYDVTRNSYRIISVDGAKVIINSTITPNMTFTKTSQKFGQWADSRANTVFGLGFSSEQQLTKFAEKFQEVKEAAKIAKDKTQEKIETSSNHSQASSVNGTDDEKASHAGPANTHLKSENDKLKIALTQSAANVKKWEIELQTLRESNARLTTALQESAASVEQWKRQFSICRDENDRLRNKIDELEEQCSEINREKEKNTQLKRRIEELEAELREKETELKDLRKQSEIIPQLMSECEYVSEKLEAAERDNQNLEDKVRSLKTDIEESKYRQRHLKVELKSFLEVLDGKIDDLHDFRRGLSKLGTDN”, the “soluble on expression in E. coli” value is reported as “not soluble”.
For “SFAAIASGNPLQLSVEVPNSNGLQHTIVLSRTKPKLYSHITLFILPNVTFPQDYIATVYFKLSPQEEFKLFGYLSSEKPSAIFKVQIPSSKKDAGDTSDGLGEIDMDVDDGSGAADPFTDTNGSSSNNISELIIGISIEPREQGMMKLEEWKASMNAEAQKNNSLILSRPNLGIIRNITTAGQLAQVYPSLTQELAAKIVQHAYNYLSGFLDAQGNVPIKRFDTWWDKFRNRLANDGTFLDEVTKN”, the “soluble on expression in E. coli” value is “soluble”.
Consider “MSDSCDGVECGPGKACRMLGGRPRCECAPDCSGLPARLQVCGSDGATYRDECELRAARCRGHPDLSVMYRGRCRK”, for which the “soluble on expression in E. coli” value is listed as “soluble”.
As to “MSASAFNFAFRRFWNSETGPKTVHFWAPTLKWGLVFAGLNDIKRPVEKVSGAQNLSLLATALIWTRWSFVIKPKNYLLASVNFFLGCTAGYHLTRIANFRIRNGDSFKQVIHYIIKGETPAAVAAKQTASTSMNKGVIGTNPPITH”, the “soluble on expression in E. coli” value is on record as “soluble”.
For “MAHHHHHHMQPRHFHVCNFLLTCSCERGHPRVRCLRFAALRFAKPHFALLCRTSLCFFFATPTRAELATDGLKGRIYEVNLADLNNDEDQAHKKIKLCCDHIINKDCYTDFCGLSITRDKLCSLIRKGYTLIEGYTDVKTIDNYQLRMFCIAFTKKRPNQTKTTCYAQTSQIKKIRKKMVDIMNAEASKVMLKDLVKKFIPESIGKEVEKQCKKIYPLQNVLIRKVKILKRPKLDISKLMELHTDSKEDAGKNVKSLPESKEATNILSAELKH” the value was “soluble”; for “MIDVGGWYNKAELKAKGDEIVKEAKLATRREAESYRAALDAQAQQEARSKGVENTEHIRGMNPITPQEEAEFAAYLDESFSWIPSAFEGYGDPNPDDFDGIIKDLAKVEGTFGGSQSSTKNGDLAWTEKAKSEIEEWKGVFAENLYNNLLLPLPTIQDNHGKIAHVLTEAMKGTQNIYNGQKRDISQLADDTIKQLKKCGTRDGDNTKLGLTVAACLMGVAAAALALPSGGTSVYVTGIVMASISSSTIITNATVKPGDGDIGGKTVNDVIKSMSDGMSRISTEVSEQEQKVVKVLSKNYEMLTGLRQLGNSSKKPTPISPMRPTIADSKNPSSGLKPEGPQ”, “not soluble”; for “MSLEFKGELTFEQELALSDMTSKENGLLHAETGFGKTVLGAALISERKTKTIILVHNKQLLDQWLDRLNCFLTFEEEEAIRYTASGREKVIGYVGQYGGTKKWLSKLVDVVMIQSLFKLENSQSLLDEYEMMIVDECHHVSALMFEKVVAQFRGKYLYGLTATPERKNGHEPIVFQRIGEILHTADKRETDFKRQLQLRFTSFGHLEIEKTKASNFIQLSDWIATDSVRNQMILKDILAQVAEGRNILVLVNRIQQIDVFEKLLKEKEVDDCYIISGKTKVRERTSLLETLEQLDKGFVLLSTGKYIGEGFDLPQLDTLILAAPFSWKNNLIQYAGRIHRNYKDKSLVRIFDYVDIHVPYLEKMFQKRQVAYRKMDYRVIEGEGHHHHHH”, “not soluble”.
Regarding “MAVSKNVTVIPARKHTRKSKDEEKPKLRVAAYCRVSTDSEEQATSYDTQIEHYTAYIQGHPDWMLAGIFADDGISGTNTKKREEFNRMIDECMAGNIDMIITKSISRFARNTLDCLKYIRQLKDKNIPVYFEKENINTMDSKGEVMLTIMASLAQQESQSLSQNVKLGLQYRYQQGEIQVNCARFLGYTKDENKRLVVVPEEAEIVKRIYREYLEGASMLKIARGLEADGILNGAGNERWHTSNINNILRNEKYIGDALLQKTYTVDFLTKKRVKNNGIVPQYYVENSHEAIIPREVFMQVQEELIRRRIVHTSPNGKTRTFSSNHVFAQIIICGKCGEVFRRVHWNNRGKKSIVWRCVSRLENTGLFCDARTVLESTIEQVLVTAINQTLCDKDSFLTTLRDNIATIINRESDKALADIDKRLEELQTELLKLATSNADYEKVGDEIHSLRDQKQKLQVENANRDELKKQIADMSTFLKKQSTALAEYDKQLVRRLIDKVTVFEDKFTVEFKSGVTVDVDE”, the “soluble on expression in E. coli” value is on record as “soluble”.
With “ETPAVQVSTNRQAIIINEQTQFKVDAALKNAGIQTDGMFVVDNSLKVRFKDTETQLKARDVIENTLGEGYITALNLLADSPEWMAKIKANPMFLGLDLRGGVHFTMQVDMKAAMQKTFERYSGDIRRELRREKIRSGTVRQAGNSLTVPLQDAGDVQKALPQLRKLFPEATLNSDGSNIVLTLSEEAVNKVCSDAVKQNITTLHNRVNELGVAEPVIQQSGADRIVVQLPGVQDTAKAKDIIGRTATLELRMVEDDPAKLREALEGNVPSGYELLSSGGDRPEILLISKQVELTGDNINDAQPSFDQMGAPAVSLSLDSAGGSIFGELTAANVGKRMAMVLIDQGKSEVVTAPVIRTAITGGRVEISGSMTTAEANDTSLLLRAGSLAAPMQIVEERTIGPSLGKENIEK”, the “soluble on expression in E. coli” value is “not soluble”.
“MASFITRAERSGNIFSRVTGLIRAGQLNWADRPLWYDVYVSSPPLTPPDWNVKLAKYDEPIRSIFYEEDVLRAKFYKTYRSTAGIQVDSSRTSVSQQFINEYKLVKSENAEATDDQLFEMTQKRLNENGIVLK”: the “soluble on expression in E. coli” value was “not soluble”.
Regarding “MSDAMPLDQTLEQLTQDEWIDIPQGWSQGRTIYGGLVAGLLMHKALSVMNDESKNLLSTSITFVGPVNEGRVRLTVEILRQGKSVTTIEARLWQDQAVQTILIASFGQPRSSEIFVLEHHHHHH”, the “soluble on expression in E. coli” value is reported as “soluble”.
Turning to “QYSLLHVSDLFFLAQQAMPGVQVLDALTGKPVEGASVDASMRYSIDRSVHTLSPTDRYGRIDLPKSYNRFFPYTDGDRSYPVVSAYTYKQDQVDLSKKNERKYIVSTDRAIYRPGQKVHFFGQCDRIGYAVEDARAIGGSEVEVVLEDANSKEIGRLLCQADEMGRFSGSFDLPTGILNGLFGLRVGGDTYPFSVEEYKRPTFEVGLRSPDAAYAMGDTLRIRGEAKTFTGIGMRGATVNYRLSLTPYTRRWWGRPVADRVVQTGEAVVDES”, the “soluble on expression in E. coli” value is listed as “not soluble”.
Regarding “MSSPYSPREWLQLNMQQQGLLQPQTSVGQLIACLGYVQIDSINVVERAHHHVLHSRMPQYQPQMLDTALAQGEIFEYWSHAAAYLPIADYRFSLQRKQQLQNGGKHWFEPDDNAMQEVRARIRAEGPLKASDFEHTEGKNGAWWDWKPAKKALEQLFMRGELMVVRREKFQKCYDLTERVLPSHINTLAPSDSEFARHLISRYLDAHAFGSAAQIAYLRKGIKANVNQQLAAMQSQGELASFKAEGQWYFYRPELQITAAMPNRVWLLNPFDNLLIQRQRLKQWFDFDYQIEVYVPAEKRQYGYYSLAILWRDRFVGRVDVKADRQSGLLLLQQLTLEEGFDGMDEGFCSAFEATVSEYARFNICSRWKLVKANHKAFKLEHHHHHH”, the “soluble on expression in E. coli” value is on record as “not soluble”.
The entry for “MGSDKIHHHHHHMNYTNEVAKMTCVAKGPNHGPAPIPEEGKWVSAKEIKDISGLTHGVGRCAPQQGACKLTLNVKEGIIQEALVETIGCSGMTHSAAMAAEILSGKTILEALNTDLVCDAINTAMRELFLQIVYGRTQTAFSEGGLPVGAGLEDLGKGHRSQVGTMYSSAAKGPRYLEMVEGYVTKTGLDENNEIIGYEFINFGKMMDMIKQGMDANEAMKKATGNYGRFADAVKVIDPREE” is “not soluble”; for “MGHVSNSPFSVDVLVVGGGPAGSAAAIHAAKAGYSVLLIDAQPFPRDKTCGDGLTPRAVHQLEALGVDVTSRYRSFGLKLHGFGGSVTVPWPESHFGQVSSAMPRMKFDAMLWEMAAQHATTWTATASEVEIDSAIRSVTMSDGRVVKPRSVIVADGVRSTFGKLLGRTWHRGEVYGIAARSYCTTPRSTEPWMHSHLELRDDSTTLPGYGWIFPIGDGTANVGCGALSTDKRPAKINTKKLLRHYASQQTDWEFGTPQRVASALLPMGGAVSTIAGPNWMLIGDAAACVNPLNGEGIDYGLETAALAVAHLDNPLEWPHILRETYGEAFLLARTAARLLTYPQFLPLTGPIALRTPLMASAARLMGNLVTEEDKDIVARAWRAAGWGVTKIRGGSPLWDLEHHHHHH” it is “not soluble”; for “MDYTPHTEEEIREMLRRVGAASLEDLFAHLPKEILSPPIDLPEPLPEWKVLEELRRLAAQNLPAHKAFLGGGVRSHHVPPVVQALAARGEFLTAYTPYQPEVSQGVLQATFEYQTMIAELAGLEIANASMYDGATALAEGVLLALRETGRMGVLVSQGVHPEYRAVLRAYLEAVGAKLLTLPLEGGRTPLPEVGEEVGAVVVQNPNFLGALEDLGPFAEAAHGAGALFVAVADPLSLGVLKPPGAYGADIAVGDGQSLGLPMGFGGPHFGFLATKKAFVRQLPGRLVSETVDVEGRRGFILTLQAREQYIRRAKAKSNITTNAQLTALMGAMYLAALGPEGLREVALKSVEMAHKLHALLLEVPGVRPFTPKPFFNEFALALPKDPEAVRRALAERGFHGATPVPREYGENLALFAATELHEEEDLLALREALKEVLA” it is “soluble”.
